Assay results: patent publication US20210246166A1 (Bayer, published 2021)
Numbered stars: 1 amine (or outer) side, 2 acyl side, 3 side chain; on linkers, the order of the positions; unused ones are H or OH. Bridge positions count the residues as written; N and C are the ends. Square brackets hold non-standard residues; d marks the D form. Primed or numbered codes have the meaning given here. Ends that are not written are not given here. * marks the point of attachment. X12 = (S)‑(trifluoromethyl)‑L‑cysteine, O=C([C@H](CSC(F)(F)F)N[*:1])[*:2]; Tranexamic″ = tranexamic acid, NC[C@H]1CC[C@@H](C(=O)*)CC1; Oic = O=C(O)[C@@H]1C[C@@H]2CCCC[C@@H]2N1; tBuAla = CC(C)(C)C[C@H](N)C(=O)O; 4Pal = N[C@@H](Cc1ccncc1)C(=O)O; Gly(cBu) = N[C@H](C(=O)O)C1CCC1; Chg = N[C@H](C(=O)O)C1CCCCC1; Pen = CC(C)(S)[C@H](N)C(=O)O; 3Amb = NCc1cccc(C(=O)O)c1; NMeC = CN[C@@H](CS)C(=O)O; Orn = NCCC[C@H](N)C(=O)O; Nva = CCC[C@H](N)C(=O)O; Abu = CC[C@H](N)C(=O)O; PEG2 = NCCOCCOCCC(=O)O; Sar = CNCC(=O)O

T1: Recombinant human MASP1 enzyme (fragment corresponding to amino acids 297-699, C-terminal His Tag) (human, UniProt P48740 297-699)
T1 sequence: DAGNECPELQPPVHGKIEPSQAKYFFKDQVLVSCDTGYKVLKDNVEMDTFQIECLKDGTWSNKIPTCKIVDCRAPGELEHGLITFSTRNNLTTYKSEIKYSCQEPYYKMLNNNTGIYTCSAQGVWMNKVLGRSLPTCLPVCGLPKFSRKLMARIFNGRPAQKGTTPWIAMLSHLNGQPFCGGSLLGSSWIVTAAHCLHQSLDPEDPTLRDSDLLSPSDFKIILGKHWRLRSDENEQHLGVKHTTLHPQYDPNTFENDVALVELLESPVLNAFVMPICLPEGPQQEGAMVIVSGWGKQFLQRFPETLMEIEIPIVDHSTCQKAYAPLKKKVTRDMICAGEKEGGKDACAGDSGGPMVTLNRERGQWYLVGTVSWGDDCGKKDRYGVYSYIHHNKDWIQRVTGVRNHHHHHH

B1: (4-Pal)-IC+SRS-((tBu)A)-PPI-(Pen)+IPD-NH2 (peptide)
peptide: [4Pal]ICSRS[tBuAla]PPI[Pen]IPD-NH2
modifications: disulfide 3-11; N-terminus assumed
SMILES: CC[C@H](C)[C@H](NC(=O)[C@@H](N)Cc1ccncc1)C(=O)N[C@H]1CSSC(C)(C)[C@@H](C(=O)N[C@H](C(=O)N2CCC[C@H]2C(=O)N[C@@H](CC(=O)O)C(N)=O)[C@@H](C)CC)NC(=O)[C@H]([C@@H](C)CC)NC(=O)[C@@H]2CCCN2C(=O)[C@@H]2CCCN2C(=O)[C@H](CC(C)(C)C)NC(=O)[C@H](CO)NC(=O)[C@H](CCCNC(=N)N)NC(=O)[C@H](CO)NC1=O
B2: (Tranexamic)-IC+SRS-((tBu)A)-PPI-(Pen)+IP-(PEG1(10 atoms))-NH2 (peptide)
peptide: {Tranexamic″}-ICSRS[tBuAla]PPI[Pen]IP-{PEG2-NH2}
modifications: disulfide 2-10
SMILES: CC[C@H](C)[C@@H]1NC(=O)[C@@H]2CCCN2C(=O)[C@@H]2CCCN2C(=O)[C@H](CC(C)(C)C)NC(=O)[C@H](CO)NC(=O)[C@H](CCCNC(=N)N)NC(=O)[C@H](CO)NC(=O)[C@@H](NC(=O)[C@@H](NC(=O)[C@H]2CC[C@@H](CN)CC2)[C@@H](C)CC)CSSC(C)(C)[C@@H](C(=O)N[C@H](C(=O)N2CCC[C@H]2C(=O)NCCOCCOCCC(N)=O)[C@@H](C)CC)NC1=O
B3: aIC+SRS-((S)-(trifluoromethyl)-L-cysteine)-PPI-(Pen)+IP-NH2 (peptide)
peptide: [dA]ICSRS[X12]PPI[Pen]IP-NH2
modifications: disulfide 3-11; N-terminus assumed
SMILES: CC[C@H](C)[C@H](NC(=O)[C@@H](C)N)C(=O)N[C@H]1CSSC(C)(C)[C@@H](C(=O)N[C@H](C(=O)N2CCC[C@H]2C(N)=O)[C@@H](C)CC)NC(=O)[C@H]([C@@H](C)CC)NC(=O)[C@@H]2CCCN2C(=O)[C@@H]2CCCN2C(=O)[C@H](CSC(F)(F)F)NC(=O)[C@H](CO)NC(=O)[C@H](CCCNC(=N)N)NC(=O)[C@H](CO)NC1=O
B4: AIC+SRSLP-(Oic)-IC+IPD-NH2 (peptide)
peptide: AICSRSLP[Oic]ICIPD-NH2
modifications: disulfide 3-11; N-terminus assumed
SMILES: CC[C@H](C)[C@H](NC(=O)[C@H](C)N)C(=O)N[C@H]1CSSC[C@@H](C(=O)N[C@H](C(=O)N2CCC[C@H]2C(=O)N[C@@H](CC(=O)O)C(N)=O)[C@@H](C)CC)NC(=O)[C@H]([C@@H](C)CC)NC(=O)[C@@H]2C[C@@H]3CCCC[C@@H]3N2C(=O)[C@@H]2CCCN2C(=O)[C@H](CC(C)C)NC(=O)[C@H](CO)NC(=O)[C@H](CCCNC(=N)N)NC(=O)[C@H](CO)NC1=O
B5: (Abu)-IC+SRSLPPIC+IPD-NH2 (peptide)
peptide: [Abu]ICSRSLPPICIPD-NH2
modifications: disulfide 3-11; N-terminus assumed
SMILES: CC[C@H](N)C(=O)N[C@H](C(=O)N[C@H]1CSSC[C@@H](C(=O)N[C@H](C(=O)N2CCC[C@H]2C(=O)N[C@@H](CC(=O)O)C(N)=O)[C@@H](C)CC)NC(=O)[C@H]([C@@H](C)CC)NC(=O)[C@@H]2CCCN2C(=O)[C@@H]2CCCN2C(=O)[C@H](CC(C)C)NC(=O)[C@H](CO)NC(=O)[C@H](CCCNC(=N)N)NC(=O)[C@H](CO)NC1=O)[C@@H](C)CC
B6: AIC+SRSLPPIC+(Cbg)-PD-NH2 (peptide)
peptide: AICSRSLPPIC[Gly(cBu)]PD-NH2
modifications: disulfide 3-11; N-terminus assumed
SMILES: CC[C@H](C)[C@H](NC(=O)[C@H](C)N)C(=O)N[C@H]1CSSC[C@@H](C(=O)N[C@H](C(=O)N2CCC[C@H]2C(=O)N[C@@H](CC(=O)O)C(N)=O)C2CCC2)NC(=O)[C@H]([C@@H](C)CC)NC(=O)[C@@H]2CCCN2C(=O)[C@@H]2CCCN2C(=O)[C@H](CC(C)C)NC(=O)[C@H](CO)NC(=O)[C@H](CCCNC(=N)N)NC(=O)[C@H](CO)NC1=O
B7: WIC+SRS-((tBu)A)-PPI-((N-Me)C)+I-NH2 (peptide)
peptide: WICSRS[tBuAla]PPI[NMeC]I-NH2
modifications: disulfide 3-11; N-terminus assumed
SMILES: CC[C@H](C)[C@H](NC(=O)[C@@H]1CSSC[C@H](NC(=O)[C@@H](NC(=O)[C@@H](N)Cc2c[nH]c3ccccc23)[C@@H](C)CC)C(=O)N[C@@H](CO)C(=O)N[C@@H](CCCNC(=N)N)C(=O)N[C@@H](CO)C(=O)N[C@@H](CC(C)(C)C)C(=O)N2CCC[C@H]2C(=O)N2CCC[C@H]2C(=O)N[C@@H]([C@@H](C)CC)C(=O)N1C)C(N)=O
B8: ((N-Me)G)-IC+SRSLPPI-((N-Me)C)+IPD-OH (peptide)
peptide: [Sar]ICSRSLPPI[NMeC]IPD-OH
modifications: disulfide 3-11; N-terminus assumed
SMILES: CC[C@H](C)[C@H](NC(=O)CNC)C(=O)N[C@H]1CSSC[C@@H](C(=O)N[C@H](C(=O)N2CCC[C@H]2C(=O)N[C@@H](CC(=O)O)C(=O)O)[C@@H](C)CC)N(C)C(=O)[C@H]([C@@H](C)CC)NC(=O)[C@@H]2CCCN2C(=O)[C@@H]2CCCN2C(=O)[C@H](CC(C)C)NC(=O)[C@H](CO)NC(=O)[C@H](CCCNC(=N)N)NC(=O)[C@H](CO)NC1=O
B9: AIC+SRS-((tBu)A)-P-(Oic)-I-((N-Me)C)+IPD-OH (peptide)
peptide: AICSRS[tBuAla]P[Oic]I[NMeC]IPD-OH
modifications: disulfide 3-11; N-terminus assumed
SMILES: CC[C@H](C)[C@H](NC(=O)[C@H](C)N)C(=O)N[C@H]1CSSC[C@@H](C(=O)N[C@H](C(=O)N2CCC[C@H]2C(=O)N[C@@H](CC(=O)O)C(=O)O)[C@@H](C)CC)N(C)C(=O)[C@H]([C@@H](C)CC)NC(=O)[C@@H]2C[C@@H]3CCCC[C@@H]3N2C(=O)[C@@H]2CCCN2C(=O)[C@H](CC(C)(C)C)NC(=O)[C@H](CO)NC(=O)[C@H](CCCNC(=N)N)NC(=O)[C@H](CO)NC1=O
B10: (Orn)-IC+SRSLPP-(Chg)-C+IPD-OH (peptide)
peptide: [Orn]ICSRSLPP[Chg]CIPD-OH
modifications: disulfide 3-11; N-terminus assumed
SMILES: CC[C@H](C)[C@H](NC(=O)[C@@H](N)CCCN)C(=O)N[C@H]1CSSC[C@@H](C(=O)N[C@H](C(=O)N2CCC[C@H]2C(=O)N[C@@H](CC(=O)O)C(=O)O)[C@@H](C)CC)NC(=O)[C@H](C2CCCCC2)NC(=O)[C@@H]2CCCN2C(=O)[C@@H]2CCCN2C(=O)[C@H](CC(C)C)NC(=O)[C@H](CO)NC(=O)[C@H](CCCNC(=N)N)NC(=O)[C@H](CO)NC1=O
B11: (Nva)-IC+SRSLPPIC+IPD-NH2 (peptide)
peptide: [Nva]ICSRSLPPICIPD-NH2
modifications: disulfide 3-11; N-terminus assumed
SMILES: CCC[C@H](N)C(=O)N[C@H](C(=O)N[C@H]1CSSC[C@@H](C(=O)N[C@H](C(=O)N2CCC[C@H]2C(=O)N[C@@H](CC(=O)O)C(N)=O)[C@@H](C)CC)NC(=O)[C@H]([C@@H](C)CC)NC(=O)[C@@H]2CCCN2C(=O)[C@@H]2CCCN2C(=O)[C@H](CC(C)C)NC(=O)[C@H](CO)NC(=O)[C@H](CCCNC(=N)N)NC(=O)[C@H](CO)NC1=O)[C@@H](C)CC
B12: AIC+SRSLPP-(Chg)-C+IPD-OH (peptide)
peptide: AICSRSLPP[Chg]CIPD-OH
modifications: disulfide 3-11; N-terminus assumed
SMILES: CC[C@H](C)[C@H](NC(=O)[C@H](C)N)C(=O)N[C@H]1CSSC[C@@H](C(=O)N[C@H](C(=O)N2CCC[C@H]2C(=O)N[C@@H](CC(=O)O)C(=O)O)[C@@H](C)CC)NC(=O)[C@H](C2CCCCC2)NC(=O)[C@@H]2CCCN2C(=O)[C@@H]2CCCN2C(=O)[C@H](CC(C)C)NC(=O)[C@H](CO)NC(=O)[C@H](CCCNC(=N)N)NC(=O)[C@H](CO)NC1=O
B13: (3-(Aminomethyl)benzoic acid)-IC+SRS-((tBu)A)-PP-(Pen)+IP-NH2 (peptide)
peptide: [3Amb]ICSRS[tBuAla]PP[Pen]IP-NH2
modifications: disulfide 3-10; N-terminus assumed
SMILES: CC[C@H](C)[C@H](NC(=O)c1cccc(CN)c1)C(=O)N[C@H]1CSSC(C)(C)[C@@H](C(=O)N[C@H](C(=O)N2CCC[C@H]2C(N)=O)[C@@H](C)CC)NC(=O)[C@@H]2CCCN2C(=O)[C@@H]2CCCN2C(=O)[C@H](CC(C)(C)C)NC(=O)[C@H](CO)NC(=O)[C@H](CCCNC(=N)N)NC(=O)[C@H](CO)NC1=O

Biological target: Recombinant human MASP2 enzyme (fragment corresponding to amino acids 297-686, C-terminal His Tag) (human, UniProt O00187 297-686)
Assay: cell-based or functional assay

Sequence of Recombinant human MASP2 enzyme (fragment corresponding to amino acids 297-686, C-terminal His Tag) (O00187 other isoform, or with tags, fused parts or gaps limits assumed): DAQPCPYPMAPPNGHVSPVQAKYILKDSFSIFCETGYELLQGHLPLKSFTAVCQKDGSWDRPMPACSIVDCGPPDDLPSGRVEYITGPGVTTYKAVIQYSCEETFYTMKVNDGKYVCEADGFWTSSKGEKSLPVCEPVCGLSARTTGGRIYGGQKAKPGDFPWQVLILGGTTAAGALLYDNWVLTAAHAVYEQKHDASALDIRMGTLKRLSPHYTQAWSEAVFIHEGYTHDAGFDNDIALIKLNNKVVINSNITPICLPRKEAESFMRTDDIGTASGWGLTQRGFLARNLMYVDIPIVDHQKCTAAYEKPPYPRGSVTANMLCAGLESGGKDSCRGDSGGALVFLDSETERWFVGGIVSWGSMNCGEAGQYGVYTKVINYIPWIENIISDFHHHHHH

Row | Binder | human MASP2 IC50
1 | B1 | 65 nM
2 | B2 | 13 nM
3 | B3 | 19 nM
4 | B4 | 400 nM
5 | {2‑(3-Pyridyl)acetyl}-ICSRS[tBuAla]PPI[Pen]IP-NH2 (disulfide 2-10) [(2-(3-Pyridyl)acetic acid)-IC+SRS-((tBu)A)-PPI-(Pen)+IP-NH2] | 8.5 nM
6 | B5 | 300 nM
7 | B6 | 410 nM
8 | B7 | 120 nM
9 | B8 | 1700 nM
10 | B9 | 190 nM
11 | [2‑(Cyclohexylamino)acetyl]ICSRS[tBuAla]PPI[Pen]IPD-NH2 (disulfide 3-11) [(2-(Cyclohexylamino)acetyl)-IC+SRS-((tBu)A)-PPI-(Pen)+IPD-NH2] | 200 nM
12 | B10 | 49 nM
13 | B11 | 220 nM
14 | B12 | 140 nM
15 | B13 | 16 nM

Biological target: T1, Recombinant human MASP1 enzyme …
Assay: cell-based or functional assay

Row | Binder | human MASP1 IC50
16 | B1 | 6.4 nM
17 | B2 | 6.5 nM
18 | B3 | 7.3 nM
19 | B4 | 6.9 nM
20 | {2‑(3-Pyridyl)acetyl}-ICSRS[tBuAla]PPI[Pen]IP-NH2 (disulfide 2-10) [(2-(3-Pyridyl)acetic acid)-IC+SRS-((tBu)A)-PPI-(Pen)+IP-NH2] | 7 nM
21 | B5 | 7.2 nM
22 | B6 | 6.5 nM
23 | B7 | 6.6 nM
24 | B8 | 7.3 nM
25 | B9 | 7.2 nM
26 | [2‑(Cyclohexylamino)acetyl]ICSRS[tBuAla]PPI[Pen]IPD-NH2 (disulfide 3-11) [(2-(Cyclohexylamino)acetyl)-IC+SRS-((tBu)A)-PPI-(Pen)+IPD-NH2] | 7.1 nM
27 | B10 | 6.9 nM
28 | B11 | 6.3 nM
29 | B12 | 6.5 nM
30 | B13 | 6.4 nM
